One experiment concerns the target T1, human NGF-Fc protein (human, UniProt P01138 122-241, limits assumed).
T1 construct: not shown: human IgG1 Fc or IgG4 Fc
Briefly: BLI (Octet Red), human NGF-Fc captured on anti-human Fc sensors, Fab in solution. Here is the method: FortéBio BioLayer Interferometry (BLI) technology was chosen as the method for affinity determination by using Octet Red system. NGF is a homodimer protein in its nature form. […] For the purpose of affinity measurement, monovalent Fab fragments of IgG were prepared using Fab preparation kit (Pierce).
After purification, the Fab concentration was determined by OD280 according to the extinction coefficient calculated based on its sequence. […] For each assay, an array of Fab concentrations from about 50 nM to less than 1 nM in kinetic buffer (PALL) were tested by NGF-Fc sensors with the association time of 300 seconds and dissociation time of 1200 seconds. The kinetic data were analyzed using program Data Analysis HT 10.0 according to the manual. All the tests were repeated at least twice in independent assays.
On the technique in general: Biolayer interferometry detects binding as a change in optical thickness at a sensor tip.

Experiment [1] deals with recombinantly produced human-NGF (human, UniProt P01138 122-241, limits assumed). Briefly: ELISA, human NGF coated, IgG titrated. As for the experimental part:
NGF binding ELISA assay: In human NGF binding ELISA, Corning 3366 high binding 96 well plates were coated with recombinantly produced human-NGF at 1 μg per ml, 50 μl/well in 1×PBS, and incubated overnight at 4° C. The plates were washed and blocked with 250 μl of 1×PBS/1% BSA at least 30 minutes at room temperature. 50 μl of culture supernatants, after 1:1 diluted by the PBS/BSA diluent, or the purified antibodies diluted serially from a certain concentration with the diluent, were added per well, and incubated at 37° C. for 2 hours. After washing, a secondary antibody, goat anti-human IgG Fc AP (Southern biotech) was applied at a dilution of 1:3000 in PBS/BSA. The plates were incubated for 1 hour at RT and washed. After adding the PNPP substrate, the ODs at 405 nm were read.
NGF binding ELISA assay: NGF binding ELISA assay was performed as described in Example 1.
On the technique in general: An ELISA detects its analyte on a solid surface through an enzyme-linked reagent.

Where a chain is given by its changes, count along the chain named.

Sequence of recombinantly produced human-NGF (P01138 122-241 limits assumed): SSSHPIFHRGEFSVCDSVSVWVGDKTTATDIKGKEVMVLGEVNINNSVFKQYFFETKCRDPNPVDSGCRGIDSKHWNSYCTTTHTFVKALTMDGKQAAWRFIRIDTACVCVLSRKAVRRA
T1 sequence (P01138 122-241 limits assumed): as above

One may read the Kd as the constant that tells how readily two partners part at equilibrium. The low end stands for tighter binding, the high end for weaker binding. As a reminder, the koff is a measure of how fast the partners let go of each other. A higher koff goes with fast dissociation. One may read the kon as the rate constant with which the complex forms. Low readings indicate slow association, high ones fast association. In the experiment with human NGF-Fc protein, Tanezumab Fab displayed a Kd of 0.169 nM, an off-rate (koff) of 6.14e-05 s⁻¹ and an association rate constant (kon) of 364000 M⁻¹ s⁻¹.

B1: Ab24 (antibody, human IgG1, V domains shown)
VH: EVQLVQSGAEVKKPGATVKISCKVSGYSFITYWISWVQQAPGKGLEWMGAIDPSDSDARYSPSFQGRVTITADKSTDTAYMELSSLRSEDTAVYYCAKSDPGYSGYSLLYGFDSWGQGTLVTVSS
VL: DVVMTQSPLSLPVTLGQPASISCRSSQSLVQRNGNTYLSWYQQRPGQSPRLLIYQVSNRYSGVPDRFSGSGSGTDFTLKISRVEAEDVGVYYCGQGAHLPLTFGQGTKVEIK
As a reminder, the EC50 is the concentration giving half of the maximal effect. As to B1, in experiment [1], the EC50 was 0.0399 ng/mL.

B2: Ab6 Fab (Fab, V domains shown)
VH: B1 VH with S28T, K74T
VL: B1 VL with Y41F, S48P
On to B2, for which, in the experiment with human NGF-Fc protein, the dissociation constant Kd stood at 0.866 nM, the koff stood at 6.33e-05 s⁻¹ and the kon was 73100 M⁻¹ s⁻¹.

B3: Ab37 Fab (Fab, V domains shown)
VH: B1 VH with S28T
VL: B1 VL with V2I, Y41F
B3: in the experiment with human NGF-Fc protein, the affinity, expressed as Kd, was 3.25 nM; the koff is 5.27e-05 s⁻¹; the on-rate constant (kon) stood at 16200 M⁻¹ s⁻¹.

B4: Ab40 (antibody, human IgG1, V domains shown)
VH: B1 VH with S28T
VL: B1 VL with V2I, Y41F, S48P
Take B4: the EC50 in experiment [1] was 0.0172 ng/mL.

B5: Ab30 (antibody, human IgG1, V domains shown)
VH: B1 VH
VL: B1 VL with V2I, Y41F, S48P
As to B5, the half-maximal effective concentration (EC50) in experiment [1] was determined as 0.0254 ng/mL.

B6: Ab4 Fab (Fab, V domains shown)
VH: B1 VH with S28T, K74T
VL: B1 VL
Regarding B6, in the experiment with human NGF-Fc protein, the dissociation constant (Kd) worked out at 0.0746 nM, the koff turned out to be 2.99e-05 s⁻¹ and the kon stood at 401000 M⁻¹ s⁻¹.

B7: Ab27 (antibody, human IgG1, V domains shown)
VH: B1 VH
VL: B1 VL with V2I, Y41F
On to B7, for which the half-maximal effective concentration (EC50) in experiment [1] came out at 0.0206 ng/mL.

B8: Ab26 (antibody, human IgG1, V domains shown)
VH: B1 VH
VL: B1 VL with Y41F, S48P
B8: the half-maximal effective concentration (EC50) in experiment [1] is 0.0234 ng/mL.

B9: Ab41 (antibody, human IgG1, V domains shown)
VH: EVQLVQSGAEVKKPGESLKISCKGSGYSFITYWISWVRQMPGKGLEWMGAIDPSDSDARYSPSFQGQVTISADKSISTAYLQWSSLKASDTAMYYCAKSDPGYSGYSLLYGFDSWGQGTLVTVSS
VL: B1 VL with V2I, S7T, L11S, Y41L, S48P, S72A
B9: in experiment [1], the EC50 turned out to be 0.0192 ng/mL.

B10: Ab51 (antibody, human IgG1, V domains shown)
VH: B9 VH with G24I
VL: B1 VL with V2I, S7T, L11S, Y41L, S48P, S72A
B10: the EC50 in experiment [1] came to 0.0221 ng/mL.

B11: Ab34 (antibody, human IgG1, V domains shown)
VH: B1 VH with S28T
VL: B1 VL
On to B11, for which, in experiment [1], the EC50 amounted to 0.11 ng/mL.

B12: Ab32 (antibody, human IgG1, V domains shown)
VH: B1 VH with S28T
VL: B1 VL with V2I, S7T, L11S, S48P, S72A
In the case of B12, the EC50 in experiment [1] turned out to be 0.0403 ng/mL.

B13: Ab38 (antibody, human IgG1, V domains shown)
VH: B1 VH with S28T
VL: B1 VL with V2I
In the case of B13, in experiment [1], the EC50 came to 0.0252 ng/mL.

B14: Ab16 Fab (Fab, V domains shown)
VH: B1 VH with K74T
VL: B1 VL with Y41F, S48P
Regarding B14, in the experiment with human NGF-Fc protein, binding was characterised by a dissociation constant (Kd) of 1.37 nM, the dissociation rate constant (koff) is 7.11e-05 s⁻¹ and the kon turned out to be 51700 M⁻¹ s⁻¹.

B15: Ab35 (antibody, human IgG1, V domains shown)
VH: B1 VH with S28T
VL: B1 VL with S48P
Turning to B15, the EC50 in experiment [1] amounted to 0.0308 ng/mL.

B16: Ab53 (antibody, human IgG1, V domains shown)
VH: B9 VH with G24I
VL: B1 VL with Y41F
Turning to B16, the EC50 in experiment [1] amounted to 0.0482 ng/mL.

B17: Ab39 (antibody, human IgG1, V domains shown)
VH: B1 VH with S28T
VL: B1 VL with V2I, S48P
For B17, the concentration giving a half-maximal response (EC50) in experiment [1] was determined as 0.0208 ng/mL.

B18: Ab50 (antibody, human IgG1, V domains shown)
VH: B9 VH
VL: B1 VL with V2I, Y41F, S48P
Take B18: in experiment [1], the 50% effective concentration (EC50) amounted to 0.00629 ng/mL.

B19: Ab10 Fab (Fab, V domains shown)
VH: B1 VH with S28T, K74T
VL: B1 VL with V2I, Y41F, S48P
B19 yielded a dissociation rate constant (koff) with human NGF-Fc protein of 7.48e-05 s⁻¹.

B20: Ab31 (antibody, human IgG1, V domains shown)
VH: B1 VH with S28T
VL: B1 VL with V2I, S7T, L11S, Y41L, S48P, S72A
Regarding B20, the concentration for a half-maximal effect (EC50) in experiment [1] was found to be 0.0502 ng/mL.

B21: Ab61 Fab (Fab, V domains shown)
VH: B1 VH with S28T, K74T
VL: B1 VL with G34A
In the experiment with human NGF-Fc protein, B21 gave a Kd of 0.139 nM, a dissociation rate constant (koff) of 5.13e-05 s⁻¹ and a kon of 370000 M⁻¹ s⁻¹.

B22: Ab36 Fab (Fab, V domains shown)
VH: B1 VH with S28T
VL: B1 VL with Y41F, S48P
As for B22, in the experiment with human NGF-Fc protein, the dissociation constant (Kd) was 0.258 nM, the koff amounted to 7.35e-05 s⁻¹ and the kon came to 285000 M⁻¹ s⁻¹.

B23: Ab25 (antibody, human IgG1, V domains shown)
VH: B1 VH
VL: B1 VL with S48P
As to B23, the concentration giving a half-maximal response (EC50) in experiment [1] is 0.0331 ng/mL.

B24: Ab33 (antibody, human IgG1, V domains shown)
VH: B1 VH with S28T
VL: B1 VL with Y41F
Regarding B24, in experiment [1], the EC50 is 0.0342 ng/mL.

B25: Ab29 (antibody, human IgG1, V domains shown)
VH: B1 VH
VL: B1 VL with V2I, S48P
Turning to B25, the 50% effective concentration (EC50) in experiment [1] is 0.0292 ng/mL.

B26: Ab28 (antibody, human IgG1, V domains shown)
VH: B1 VH
VL: B1 VL with V2I
Regarding B26, the concentration for a half-maximal effect (EC50) in experiment [1] was determined as 0.0331 ng/mL.

B27: Ab43 (antibody, human IgG1, V domains shown)
VH: B9 VH
VL: B1 VL with Y41F
Regarding B27, in experiment [1], the half-maximal effective concentration (EC50) is 0.0221 ng/mL.
